# According to PMC9328677:
# T1: APLF acidic domain (APLFAD) WT (Homo sapiens, UniProt Q8IW19 450-511)
# T1 sequence: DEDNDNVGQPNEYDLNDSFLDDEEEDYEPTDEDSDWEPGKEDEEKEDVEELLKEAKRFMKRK
# B1: 49-bp DNA, centre of 601 (dsDNA)
# DNA 1: GCACCGCTTAAACGCACGTACGCGCTGTCCCCCGCGTTTTAACCGCCAA
# DNA 2: TTGGCGGTTAAAACGCGGGGGACAGCGCGTACGTGCGTTTAAGCGGTGC
# Biological target: T1, APLF acidic domain (APLFAD) WT
# Assay: EMSA (native PAGE, cross-linked); APLFAD alone, no histones; Native PAGE EMSA with cross-linking; EMSA and NAQ buffer, salt and temperature not in material (general assay buffer 25 mM NaPi pH 7.0, 300 mM NaCl)
# Details: protein: recombinant; tags: TAMRA-labelled; His-GST or His-SUMO fusion for expression (TEV cleaved; SUMO may be retained); chain copies: 2; blunt
binder,measurement,value
B1,binding result,no binding
